According to US10941182 (Amgen, dated 2021):
Starred links: 1 amine or outer side, 2 acyl side, 3 side chain; linkers in the order of their positions; H or OH if unused. Non-standard residues stand in square brackets, D forms with d. *: point of attachment. AC4Abu = α-carboxy-4-aminobutyric acid, O=C(C(CCN[*:1])C(=O)[*:3])[*:2]; Oic = O=C(O)[C@@H]1C[C@@H]2CCCC[C@@H]2N1; Phe(4-Cl) = N[C@@H](Cc1ccc(Cl)cc1)C(=O)O; γGlu = O=C(O)[C@H](CCC(=O)[*:2])N[*:1]; 1Nal = N[C@@H](Cc1cccc2ccccc12)C(=O)O; 2Nal = N[C@@H](Cc1ccc2ccccc2c1)C(=O)O; NMeR = CN[C@@H](CCCNC(=N)N)C(=O)O; Tridecanoyl = CCCCCCCCCCCCC(=O)*; Gly(N-CH2CH2OH) = O=C(O)CNCCO; Tle = CC(C)(C)[C@H](N)C(=O)O; Nle = CCCC[C@H](N)C(=O)O; AEEA = NCCOCCOCC(=O)O; βAla = NCCC(=O)O

T1: human APJ receptor (human, UniProt P35414 1-380)
T1 sequence (looked up): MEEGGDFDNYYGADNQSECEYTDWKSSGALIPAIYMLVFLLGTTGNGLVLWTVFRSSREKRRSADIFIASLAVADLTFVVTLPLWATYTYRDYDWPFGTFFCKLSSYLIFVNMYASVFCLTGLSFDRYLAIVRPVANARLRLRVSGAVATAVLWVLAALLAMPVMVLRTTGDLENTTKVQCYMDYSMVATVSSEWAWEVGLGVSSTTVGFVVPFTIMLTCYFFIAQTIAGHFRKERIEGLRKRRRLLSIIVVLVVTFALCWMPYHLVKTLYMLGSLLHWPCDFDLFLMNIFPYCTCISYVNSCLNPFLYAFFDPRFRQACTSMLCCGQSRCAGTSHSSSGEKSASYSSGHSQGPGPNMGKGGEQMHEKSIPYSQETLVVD

T2: rat APJ receptor (rat, UniProt Q9JHG3 1-377)
T2 sequence (looked up): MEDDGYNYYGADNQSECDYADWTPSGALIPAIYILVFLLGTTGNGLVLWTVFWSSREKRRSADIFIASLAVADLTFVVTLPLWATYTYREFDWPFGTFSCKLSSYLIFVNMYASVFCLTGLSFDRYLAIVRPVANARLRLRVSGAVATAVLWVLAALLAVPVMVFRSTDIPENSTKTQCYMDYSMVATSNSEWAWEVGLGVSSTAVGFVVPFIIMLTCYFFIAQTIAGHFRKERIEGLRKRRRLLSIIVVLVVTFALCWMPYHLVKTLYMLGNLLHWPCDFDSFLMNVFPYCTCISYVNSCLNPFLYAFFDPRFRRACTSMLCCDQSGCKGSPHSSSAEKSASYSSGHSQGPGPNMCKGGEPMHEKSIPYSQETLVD


How the values were obtained:
human APJ receptor = molecular target: T1, human APJ receptor; test: cell-based or functional assay
rat APJ receptor = molecular target: T2, rat APJ receptor; test: cell-based or functional assay

EC50 Human APJ Receptor (GTPγS assay) (human APJ receptor) [nM] | EC50 Rat APJ Receptor (GTPγS assay) (rat APJ receptor) [nM] | Binder
2.63 | 8.1 | Tridecanoyl-[AC4Abu][AEEA][AEEA]QRP[NMeR]LSHKGP[Nle][2Nal]-OH (SMILES CCCCCCCCCCCCC(=O)NCCC(C(=O)O)C(=O)NCCOCCOCC(=O)NCCOCCOCC(=O)N[C@@H](CCC(N)=O)C(=O)N[C@@H](CCCNC(=N)N)C(=O)N1CCC[C@H]1C(=O)N(C)[C@@H](CCCNC(=N)N)C(=O)N[C@@H](CC(C)C)C(=O)N[C@@H](CO)C(=O)N[C@@H](Cc1c[nH]cn1)C(=O)N[C@@H](CCCCN)C(=O)NCC(=O)N1CCC[C@H]1C(=O)N[C@@H](CCCC)C(=O)N[C@@H](Cc1ccc2ccccc2c1)C(=O)O) [Apelin polypeptide SEQ ID NO: 403]
0.108 | 0.23 | Tridecanoyl-[γGlu][AEEA][AEEA]QRP[NMeR]LSHKG[Oic][Nle]P[Phe(4-Cl)]-OH (SMILES CCCCCCCCCCCCC(=O)N[C@@H](CCC(=O)NCCOCCOCC(=O)NCCOCCOCC(=O)N[C@@H](CCC(N)=O)C(=O)N[C@@H](CCCNC(=N)N)C(=O)N1CCC[C@H]1C(=O)N(C)[C@@H](CCCNC(=N)N)C(=O)N[C@@H](CC(C)C)C(=O)N[C@@H](CO)C(=O)N[C@@H](Cc1c[nH]cn1)C(=O)N[C@@H](CCCCN)C(=O)NCC(=O)N1[C@H](C(=O)N[C@@H](CCCC)C(=O)N2CCC[C@H]2C(=O)N[C@@H](Cc2ccc(Cl)cc2)C(=O)O)C[C@@H]2CCCC[C@@H]21)C(=O)O) [Apelin polypeptide SEQ ID NO: 352]
0.1 | 0.246 | Tridecanoyl-[AC4Abu][AEEA][AEEA]QRP[NMeR]LSHKGP[Nle][Phe(4-Cl)]-OH (SMILES CCCCCCCCCCCCC(=O)NCCC(C(=O)O)C(=O)NCCOCCOCC(=O)NCCOCCOCC(=O)N[C@@H](CCC(N)=O)C(=O)N[C@@H](CCCNC(=N)N)C(=O)N1CCC[C@H]1C(=O)N(C)[C@@H](CCCNC(=N)N)C(=O)N[C@@H](CC(C)C)C(=O)N[C@@H](CO)C(=O)N[C@@H](Cc1c[nH]cn1)C(=O)N[C@@H](CCCCN)C(=O)NCC(=O)N1CCC[C@H]1C(=O)N[C@@H](CCCC)C(=O)N[C@@H](Cc1ccc(Cl)cc1)C(=O)O) [Apelin polypeptide SEQ ID NO: 402]
4.15 | 17.2 | Tridecanoyl-[γGlu][AEEA][AEEA]QRP[NMeR]LSH[βAla]GP[Nle]P[Phe(4-Cl)]-OH (SMILES CCCCCCCCCCCCC(=O)N[C@@H](CCC(=O)NCCOCCOCC(=O)NCCOCCOCC(=O)N[C@@H](CCC(N)=O)C(=O)N[C@@H](CCCNC(=N)N)C(=O)N1CCC[C@H]1C(=O)N(C)[C@@H](CCCNC(=N)N)C(=O)N[C@@H](CC(C)C)C(=O)N[C@@H](CO)C(=O)N[C@@H](Cc1c[nH]cn1)C(=O)NCCC(=O)NCC(=O)N1CCC[C@H]1C(=O)N[C@@H](CCCC)C(=O)N1CCC[C@H]1C(=O)N[C@@H](Cc1ccc(Cl)cc1)C(=O)O)C(=O)O) [Apelin polypeptide SEQ ID NO: 424]
0.132 | 0.313 | XXXQRPRLXHKGPXPF ({TDA}[AC4Abu][Aeea][Aeea]QRP[NMeArg]L[Pra]HKGP[Nle]P[4-Cl-F]{COOH}) [Apelin polypeptide SEQ ID NO: 450]
0.0542 | 0.377 | Tridecanoyl-[γGlu][AEEA][AEEA]QRP[NMeR]L[βAla]HKGP[Nle]P[Phe(4-Cl)]-OH (SMILES CCCCCCCCCCCCC(=O)N[C@@H](CCC(=O)NCCOCCOCC(=O)NCCOCCOCC(=O)N[C@@H](CCC(N)=O)C(=O)N[C@@H](CCCNC(=N)N)C(=O)N1CCC[C@H]1C(=O)N(C)[C@@H](CCCNC(=N)N)C(=O)N[C@@H](CC(C)C)C(=O)NCCC(=O)N[C@@H](Cc1c[nH]cn1)C(=O)N[C@@H](CCCCN)C(=O)NCC(=O)N1CCC[C@H]1C(=O)N[C@@H](CCCC)C(=O)N1CCC[C@H]1C(=O)N[C@@H](Cc1ccc(Cl)cc1)C(=O)O)C(=O)O) [Apelin polypeptide SEQ ID NO: 464]
0.0816 | 0.351 | XXXQRPRLSHKGPXPF ({TDA}[AC4Abu][Aeea][Aeea]QRP[NMeArg]LSHKGP[Nle][aMePro][4-Cl-F]{COOH}) [Apelin polypeptide SEQ ID NO: 401]
0.0664 | 0.0935 | XXXQRPRLSHKGPXXF ({TDA}[AC4Abu][Aeea][Aeea]QRP[NMeArg]LSHKGP[Nle][Pip][4-Cl-F]{COOH}) [Apelin polypeptide SEQ ID NO: 429]
0.645 | 1.18 | Tridecanoyl-[AC4Abu][AEEA][AEEA]QRP[NMeR]LS[βAla]KGP[Nle]P[Phe(4-Cl)]-OH (SMILES CCCCCCCCCCCCC(=O)NCCC(C(=O)O)C(=O)NCCOCCOCC(=O)NCCOCCOCC(=O)N[C@@H](CCC(N)=O)C(=O)N[C@@H](CCCNC(=N)N)C(=O)N1CCC[C@H]1C(=O)N(C)[C@@H](CCCNC(=N)N)C(=O)N[C@@H](CC(C)C)C(=O)N[C@@H](CO)C(=O)NCCC(=O)N[C@@H](CCCCN)C(=O)NCC(=O)N1CCC[C@H]1C(=O)N[C@@H](CCCC)C(=O)N1CCC[C@H]1C(=O)N[C@@H](Cc1ccc(Cl)cc1)C(=O)O) [Apelin polypeptide SEQ ID NO: 423]
0.394 | 0.47 | Tridecanoyl-[γGlu][AEEA][AEEA]QRP[NMeR]LSH[1Nal]GP[Nle]P[Phe(4-Cl)]-OH (SMILES CCCCCCCCCCCCC(=O)N[C@@H](CCC(=O)NCCOCCOCC(=O)NCCOCCOCC(=O)N[C@@H](CCC(N)=O)C(=O)N[C@@H](CCCNC(=N)N)C(=O)N1CCC[C@H]1C(=O)N(C)[C@@H](CCCNC(=N)N)C(=O)N[C@@H](CC(C)C)C(=O)N[C@@H](CO)C(=O)N[C@@H](Cc1c[nH]cn1)C(=O)N[C@@H](Cc1cccc2ccccc12)C(=O)NCC(=O)N1CCC[C@H]1C(=O)N[C@@H](CCCC)C(=O)N1CCC[C@H]1C(=O)N[C@@H](Cc1ccc(Cl)cc1)C(=O)O)C(=O)O) [Apelin polypeptide SEQ ID NO: 449]
0.133 | 0.305 | Tridecanoyl-[γGlu][AEEA][AEEA]QRP[NMeR]LSHHGP[Nle]P[Phe(4-Cl)]-OH (SMILES CCCCCCCCCCCCC(=O)N[C@@H](CCC(=O)NCCOCCOCC(=O)NCCOCCOCC(=O)N[C@@H](CCC(N)=O)C(=O)N[C@@H](CCCNC(=N)N)C(=O)N1CCC[C@H]1C(=O)N(C)[C@@H](CCCNC(=N)N)C(=O)N[C@@H](CC(C)C)C(=O)N[C@@H](CO)C(=O)N[C@@H](Cc1c[nH]cn1)C(=O)N[C@@H](Cc1c[nH]cn1)C(=O)NCC(=O)N1CCC[C@H]1C(=O)N[C@@H](CCCC)C(=O)N1CCC[C@H]1C(=O)N[C@@H](Cc1ccc(Cl)cc1)C(=O)O)C(=O)O) [Apelin polypeptide SEQ ID NO: 448]
0.0937 | 0.157 | Tridecanoyl-[γGlu][AEEA][AEEA]QRP[NMeR]LSHKGP[Nle][βAla][Phe(4-Cl)]-OH (SMILES CCCCCCCCCCCCC(=O)N[C@@H](CCC(=O)NCCOCCOCC(=O)NCCOCCOCC(=O)N[C@@H](CCC(N)=O)C(=O)N[C@@H](CCCNC(=N)N)C(=O)N1CCC[C@H]1C(=O)N(C)[C@@H](CCCNC(=N)N)C(=O)N[C@@H](CC(C)C)C(=O)N[C@@H](CO)C(=O)N[C@@H](Cc1c[nH]cn1)C(=O)N[C@@H](CCCCN)C(=O)NCC(=O)N1CCC[C@H]1C(=O)N[C@@H](CCCC)C(=O)NCCC(=O)N[C@@H](Cc1ccc(Cl)cc1)C(=O)O)C(=O)O) [Apelin polypeptide SEQ ID NO: 425]
0.129 | 0.521 | Tridecanoyl-[γGlu][AEEA][AEEA]QRP[NMeR]L[Gly(N-CH2CH2OH)]HKGP[Nle]P[Phe(4-Cl)]-OH (SMILES CCCCCCCCCCCCC(=O)N[C@@H](CCC(=O)NCCOCCOCC(=O)NCCOCCOCC(=O)N[C@@H](CCC(N)=O)C(=O)N[C@@H](CCCNC(=N)N)C(=O)N1CCC[C@H]1C(=O)N(C)[C@@H](CCCNC(=N)N)C(=O)N[C@@H](CC(C)C)C(=O)N(CCO)CC(=O)N[C@@H](Cc1c[nH]cn1)C(=O)N[C@@H](CCCCN)C(=O)NCC(=O)N1CCC[C@H]1C(=O)N[C@@H](CCCC)C(=O)N1CCC[C@H]1C(=O)N[C@@H](Cc1ccc(Cl)cc1)C(=O)O)C(=O)O) [Apelin polypeptide SEQ ID NO: 467]
2.15 | 3.21 | Tridecanoyl-[γGlu][AEEA][AEEA]QRP[NMeR][Tle]SHKG[Oic][Nle]P[Phe(4-Cl)]-OH (SMILES CCCCCCCCCCCCC(=O)N[C@@H](CCC(=O)NCCOCCOCC(=O)NCCOCCOCC(=O)N[C@@H](CCC(N)=O)C(=O)N[C@@H](CCCNC(=N)N)C(=O)N1CCC[C@H]1C(=O)N(C)[C@@H](CCCNC(=N)N)C(=O)N[C@H](C(=O)N[C@@H](CO)C(=O)N[C@@H](Cc1c[nH]cn1)C(=O)N[C@@H](CCCCN)C(=O)NCC(=O)N1[C@H](C(=O)N[C@@H](CCCC)C(=O)N2CCC[C@H]2C(=O)N[C@@H](Cc2ccc(Cl)cc2)C(=O)O)C[C@@H]2CCCC[C@@H]21)C(C)(C)C)C(=O)O) [Apelin polypeptide SEQ ID NO: 439]
